Reference: the supplement of paper PMC9732359
± gives the uncertainty stated by the source.

Assay: protein stability index of a GFP-peptide fusion (yeast GPS) (PSI 1-4); higher = more stable; sorted into four equal gates, so the index is relative within each strain
Outline: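 Peptides tiling yeast proteins in 17-residue segments were fused downstream of GFP, with Cherry expressed from the same plasmid. As a pooled library in yeast, mid-log cultures grown in leucine-free medium were sorted into four equal gates by GFP/Cherry fluorescence ratio. Gate plasmids were PCR-amplified and Illumina-sequenced, and barcodes linked reads to strains. Each peptide received a protein stability index equal to the sum of each gate's read frequency times its gate number.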

| Sequence | protein stability index (doa10∆) | protein stability index (pdr5∆) | protein stability index (san1∆) | protein stability index (ubr1∆) |
| --- | --- | --- | --- | --- |
| GEAEAEKEEEEAKEESD [RPP1A] | 2.13 ± 0.22 | 3.51 ± 0.15 | 2.54 ± 0.16 | 3.52 ± 0.14 |
| PPSVTLQDWQREDEFGS [YDL088C/ASM4] | 3.1 ± 0.11 | 3.31 ± 0.074 | 2.99 ± 0.065 | 3.24 ± 0.054 |
| GTSVYLVDKRIDMLPML [DIS3] | 1.89 ± 0.18 | – | – | 2.12 ± 0.25 |
| NLVSLLIIVTRKNYMHV [YML031W/NDC1] | 1.21 ± 0.041 | 1.22 ± 0.039 | 1.26 ± 0.11 | 1.3 ± 0.033 |
| AGAGEANGTVVSFIKNG [MTR3] | 1.79 ± 0.16 | 2.53 ± 0.2 | – | 2.21 ± 0.11 |
| TNNEQLQQELATTQDQV [NUT2] | 3.06 ± 0.048 | 3.25 ± 0.062 | 3.11 ± 0.039 | 3.19 ± 0.038 |
| KVSAREKSAYKFFHNGM [FAS2] | 3.5 ± 0.14 | 3.39 ± 0.14 | 3.35 ± 0.099 | 3.54 ± 0.13 |
| KYQKALHYLKKFKHIDD [SRP72] | 2.04 ± 0.1 | 2.96 ± 0.12 | 2.57 ± 0.17 | 2.31 ± 0.14 |
| ANNGAAFSPLTTTRIQS [MED2] | 2.67 ± 0.081 | 2.91 ± 0.06 | 2.65 ± 0.066 | 2.66 ± 0.044 |
| RLAEVNLKDLNNVKQMV [RPO21] | 2.77 ± 0.26 | – | 2.9 ± 0.25 | 3.08 ± 0.18 |
| ELAKEAKKSTTISKEST [ESC2] | 2.55 ± 0.13 | 2.47 ± 0.14 | 2.63 ± 0.21 | 2.85 ± 0.063 |
| VYTAIYNYCVNKSRSSG [CDC53] | 2.48 ± 0.074 | 2.62 ± 0.057 | 2.61 ± 0.053 | 2.71 ± 0.043 |
| HSRILPKKALKVKAGVR [RRP43] | 1.73 ± 0.046 | 1.63 ± 0.054 | 1.57 ± 0.082 | 1.6 ± 0.032 |
| EGTPINNVYFAAGALFV [RPN14] | 2.2 ± 0.091 | 2.63 ± 0.13 | 2.72 ± 0.12 | 2.45 ± 0.11 |
| PAKSASARGSYLRVSFK [RPL17A] | 3.2 ± 0.046 | 3.27 ± 0.051 | 3.091 ± 0.029 | 3.14 ± 0.041 |
| LRLPFSAAMSIDKLSDV [PRP8] | 2.43 ± 0.053 | 2.42 ± 0.038 | 2.24 ± 0.048 | 2.3 ± 0.033 |
| VLSQFERSYPSEFANQN [ROX3] | 2.26 ± 0.098 | 3.15 ± 0.097 | 2.63 ± 0.15 | 2.78 ± 0.11 |
| LRSRLQQQQQQQQQTSP [SNF5] | 2.58 ± 0.057 | 2.95 ± 0.058 | 2.76 ± 0.05 | 2.78 ± 0.049 |
| HPWEQAKEVKVLYHTSG [PRP8] | 2.81 ± 0.23 | 2.78 ± 0.14 | 3.03 ± 0.085 | 2.9 ± 0.091 |
| EVIFSFEGTPPFSLTYV [YMR129W/POM152] | 2.09 ± 0.051 | 2.21 ± 0.063 | 2.11 ± 0.083 | 2.25 ± 0.047 |
| GDKEATAPLIQRKNKKN [RPN8] | 3.22 ± 0.15 | 3.42 ± 0.12 | 3.18 ± 0.088 | 3.15 ± 0.18 |
| MSSDASTYRLEDVLSSF [SSN2] | 2.21 ± 0.073 | 2.38 ± 0.069 | 1.9 ± 0.1 | 2.56 ± 0.091 |
| QTQREKAPLQPNSERET [IRR1] | 3.1 ± 0.061 | 3.2 ± 0.059 | 3.06 ± 0.039 | 3.07 ± 0.054 |
| TWRTQLAASEIGISIVG [ECM29] | 1.72 ± 0.065 | 2 ± 0.083 | 1.68 ± 0.071 | 1.88 ± 0.037 |
| SIHVNRVERSSRSTDNF [RRI1] | 3.32 ± 0.074 | 3.18 ± 0.069 | 3.03 ± 0.058 | 3.02 ± 0.051 |

| Sequence | protein stability index (doa10∆) | protein stability index (pdr5∆) | protein stability index (san1∆) | protein stability index (ubr1∆) |
| --- | --- | --- | --- | --- |
| KCGVISPRFNVKIGDIE [RPS22A] | 3.28 ± 0.1 | 3.35 ± 0.093 | 2.78 ± 0.11 | 3.43 ± 0.079 |
| SLQQMQHLQQLKMQQQQ [GAL11] | 2.05 ± 0.096 | 2.09 ± 0.06 | 2.36 ± 0.099 | 1.41 ± 0.08 |
| YQRPMQVQGQQQAQSFV [SSN3] | 2.42 ± 0.044 | 2.71 ± 0.045 | 2.5 ± 0.05 | 2.63 ± 0.035 |
| EVTEEQAEATEWAEENA [RPS0A] | 3.48 ± 0.13 | 3.51 ± 0.1 | 2.99 ± 0.13 | 3.62 ± 0.095 |
| TNVLNFIKLQKIDIIEL [FAS1] | 2.35 ± 0.042 | 1.94 ± 0.043 | 1.91 ± 0.075 | 2.05 ± 0.044 |
| FNVVDVGVDQLSIELEG [YJL039C/NUP192] | 3.49 ± 0.076 | 3.34 ± 0.058 | 3.29 ± 0.038 | 3.37 ± 0.049 |
| NQLVEPNRIKLSKEVPF [SRB5] | 2.42 ± 0.038 | 2.44 ± 0.037 | 2.46 ± 0.042 | 2.23 ± 0.025 |
| VSNKFEKIFHYGHVFLG [PUP3] | 2.94 ± 0.28 | – | – | – |
| GCENPADVFRRCLVAVI [SRP72] | 1.93 ± 0.055 | 1.48 ± 0.048 | 2.29 ± 0.088 | 1.98 ± 0.077 |
| TTSVDVMLKGIVTALLE [SRP54] | 1.27 ± 0.047 | 1.22 ± 0.056 | 1.18 ± 0.1 | 1.11 ± 0.04 |
| TPLFPIDRNSTILYLNV [IRR1] | 2.71 ± 0.083 | 1.87 ± 0.072 | 2.93 ± 0.092 | 2.69 ± 0.098 |
| PNIRTMSGTTKRLNGKR [SSN2] | 2.24 ± 0.23 | 2.74 ± 0.22 | 2.39 ± 0.17 | 3.46 ± 0.11 |
| AVSVANGFMHAGTTDNS [RPN2] | 1.25 ± 0.062 | 1.4 ± 0.051 | 1.17 ± 0.24 | 1.28 ± 0.067 |
| FEGVTHRWGTKKLPRKT [RPL3] | 3.31 ± 0.11 | 2.98 ± 0.13 | 3.11 ± 0.082 | 3.34 ± 0.061 |
| FKGVIVKIVDKDGIRQV [PRE1] | 2.26 ± 0.18 | 3.11 ± 0.19 | 3.16 ± 0.23 | 3.13 ± 0.092 |
| VHDKIWCCRSGSAADTQ [PRE3] | 2.59 ± 0.07 | 2.92 ± 0.076 | 2.64 ± 0.081 | 2.65 ± 0.048 |
| KLEGSENSEPPALESSP [SNF2] | 3.09 ± 0.073 | 2.97 ± 0.064 | 3.28 ± 0.071 | 3.26 ± 0.057 |
| QRDLGLYVVGLFDTYHA [RRP6] | 2.38 ± 0.046 | 2.53 ± 0.043 | 1.91 ± 0.062 | 2.57 ± 0.033 |
| LTIFDSVDESARIKDAF [YJL039C/NUP192] | 3.01 ± 0.11 | 3.07 ± 0.094 | 3.19 ± 0.051 | 3.02 ± 0.093 |
| ATQMTLNTFHFAGVASK [RPO21] | 1.89 ± 0.11 | 1.9 ± 0.076 | 2 ± 0.22 | 2.32 ± 0.14 |
| SRGAVSGQKAGLIAARR [RPL2A] | 3.4 ± 0.093 | 3.32 ± 0.083 | 3.27 ± 0.065 | 3.25 ± 0.097 |
| ESQLQMDRTSLRKQYSA [SMC3] | 2.47 ± 0.08 | 2.53 ± 0.096 | 2.75 ± 0.067 | 2.86 ± 0.094 |
| SNVLDGNKNQFEPSISR [LRP1] | 3 ± 0.086 | 2.95 ± 0.074 | 3.12 ± 0.046 | 3.36 ± 0.091 |
| KDNARIYQVPEKDLEHW [POP1] | – | – | 2.26 ± 0.23 | – |
| TKGDSTPVQPDLSVTPQ [YAR002W/NUP60] | 3.22 ± 0.036 | 3.16 ± 0.036 | 2.984 ± 0.028 | 3.098 ± 0.024 |
